Experimental data published in publication doi:10.1101/2020.05.22.111047.

Biological target: Carbonic anhydrase 1 (CA1) (human, UniProt P00915 2-261)
Assay: G-FET

Chain of Carbonic anhydrase 1 (CA1) (P00915 2-261): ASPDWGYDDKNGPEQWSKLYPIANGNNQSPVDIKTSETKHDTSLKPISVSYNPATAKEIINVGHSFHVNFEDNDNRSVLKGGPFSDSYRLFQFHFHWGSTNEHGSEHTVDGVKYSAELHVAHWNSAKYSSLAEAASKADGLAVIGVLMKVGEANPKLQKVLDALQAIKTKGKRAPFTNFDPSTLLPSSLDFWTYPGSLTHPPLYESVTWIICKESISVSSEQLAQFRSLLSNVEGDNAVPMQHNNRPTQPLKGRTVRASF

Q: For CAGGCGCAGUAUCACUUUGUGAUCAUUAGUGGGUUCCGUG (ssRNA, 5' amine, coupled to graphene via PBASE linker) [CA1 RNA aptamer], which Kd is on record?
A: 2.27 ng/mL
